Numbering of substitutions follows the chain as printed. Where two headings read alike, the source gives them in different places.
Columns and labels:
PDL1 protein [1] = target: T1, PDL1 protein (UniProt Q9NZQ7 19-238); test: ELISA, coated PDL1 protein, OD450 [panel A]
T1 construct: Bought recombinant protein
Protocol: (§1) (3) PDL1 protein (purchased from Acro) was diluted to 2 μg/ml with PBS buffer, added to a 96-well plate at a volume of 100 μL/well, and placed at 4° C. overnight. The PBS buffer in the 96-well plate was aspirated, and the plate was washed 6 times with PBST (pH 7.2 PBS containing 0.10% Tween 20) buffer. Then, PBS/10% BSA was added at 200 μL/well and incubated at 37° C. for 2 h for blocking. The blocking solution was removed, and the plate was washed six times with PBST. Then, the to-be-tested bispecific antibodies serially diluted with PBST/0.05% BSA, Cross3×PDL1, Cross303×PDL1, Cross307×PDL1, Cross308×PDL1, Cross309×PDL1, Cross310×PDL1, Cross311×PDL1, Cross312×PDL1, Cross313×PDL1, Cross314×PDL1, Cross316×PDL1, Cross317×PDL1, Cross318×PDL1, Cross323×PDL1, Cross325×PDL1, Cross326×PDL1, and control IgG1LALA (purchased from Bio-Tech) were added at 100 μL/well, and incubated at 37° C. for 1 h. The reaction system was removed, and the plate was washed 6 times with PBST. Then, the cells were incubated at 37° C. for 1 h with HRP (horseradish peroxidase)-labeled anti-human secondary antibody (Fab specific) (purchased from Sigma) serially diluted with PBST/0.05% BSA at 100 μL/well. After the plate was washed six times with PBST, TMB (tetramethylbenzidine) was added at 80 μL/well and incubated at room temperature for 3 min. 4 M sulfuric acid was added at 80 μL/well to terminate the reaction. The absorbance was read at 450 nm using a microplate reader.

[2] = target: T2, PDL1 on A-375 melanoma cells, HCT-15 colorectal cancer cells and A549 lung cancer cells (UniProt Q9NZQ7 19-290, limits assumed); test: flow cytometry, A549 cells, MFI [panel B]
T2 construct: whole, on cells
T2 sequence (Q9NZQ7 19-290 limits assumed): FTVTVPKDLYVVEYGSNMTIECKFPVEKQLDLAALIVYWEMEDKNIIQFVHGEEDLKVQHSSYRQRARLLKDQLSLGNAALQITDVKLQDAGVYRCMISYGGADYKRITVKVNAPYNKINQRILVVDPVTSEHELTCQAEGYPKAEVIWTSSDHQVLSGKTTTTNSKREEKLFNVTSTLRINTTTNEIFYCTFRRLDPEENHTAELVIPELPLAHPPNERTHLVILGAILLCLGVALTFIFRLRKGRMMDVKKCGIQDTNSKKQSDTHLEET
Protocol: (2) The tumor cells were diluted to 2×10⁶/ml with PBS and added to a 1.5 ml EP tube at a volume of 100 μl/tube, and goat serum was added thereto at 10 μl/tube. The cells were blocked at 4° C. for 30 min. The serially diluted bispecific antibodies, Cross3×Trop2, Cross303×Trop2, Cross307×Trop2, Cross308×Trop2, Cross309×Trop2, Cross310×Trop2, Cross311×Trop2, Cross312×Trop2, Cross313×Trop2, Cross314×Trop2, Cross316×Trop2, Cross317×Trop2, Cross318×Trop2, Cross323×Trop2, Cross325×Trop2, Cross326×Trop2, and Cross3×PDL1, Cross303×PDL1, Cross307×PDL1, Cross308×PDL1, Cross309×PDL1, Cross310×PDL1, Cross311×PDL1, Cross312×PDL1, Cross313×PDL1, Cross314×PDL1, Cross316×PDL1, Cross317×PDL1, Cross318×PDL1, Cross323×PDL1, Cross325×PDL1, Cross326×PDL1, and control hIgG1LALA (purchased from Bio-Tech) were added and incubated at 4° C. for 30 min. 1 ml of PBS was added to the EP tube, followed by centrifugation at 3500 rpm for 5 min at 4° C. The supernatant was discarded, and the cells were washed again with PBS. After centrifugation, the supernatant was completely discarded, and the cells were resuspended with PBS at 100 μl/tube. Alexa-647-labeled goat anti-human IgG secondary antibody (purchased from Jackson lab) was added at 1 μl/tube and incubated at 4° C. in the dark for 30 min. The cells were washed twice with PBS, and the supernatant was completely discarded after centrifugation. The cells were resuspended with PBS at 200 μl/tube and assay was performed using the flow cytometry.

CD3 on CD8 T cells [3] = target: T3, CD3 on CD8 T cells (Homo sapiens (Human), UniProt P07766 23-207); test: flow cytometry, CD8 T cells in PBMCs, binding ratio % [panel A]
T3 construct: Native CD3 complex on CD8 T cells among PBMCs; also called T cells (PBMCs gated with anti-human CD8 antibody)
T3 sequence (P07766 23-207 limits assumed): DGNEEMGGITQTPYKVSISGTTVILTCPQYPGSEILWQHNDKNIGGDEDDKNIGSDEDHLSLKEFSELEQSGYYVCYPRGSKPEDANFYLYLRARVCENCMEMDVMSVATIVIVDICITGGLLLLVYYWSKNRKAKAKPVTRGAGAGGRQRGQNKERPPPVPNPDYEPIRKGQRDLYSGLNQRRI
Protocol: (1) PBMCs were diluted to 2×10⁶/ml with PBS and added to a 1.5 ml EP tube at 100 μl/tube, goat serum was added thereto at 10 μl/tube. The cells were blocked at 4° C. for 30 min. The serially diluted bispecific antibodies, Cross3×Trop2, Cross303×Trop2, Cross307×Trop2, Cross308×Trop2, Cross309×Trop2, Cross310×Trop2, Cross311×Trop2, Cross312×Trop2, Cross313×Trop2, Cross314×Trop2, Cross316×Trop2, Cross317×Trop2, Cross318×Trop2, Cross323×Trop2, Cross325×Trop2, Cross326×Trop2, Cross3×PDL1, Cross313×PDL1, Cross316×PDL1, Cross325×PDL1, and control hIgG1LALA (purchased from Bio-Tech) were added and incubated at 4° C. for 30 min. 1 ml of PBS was added to the EP tube, followed by centrifugation at 3500 rpm for 5 min at 4° C. The supernatant was discarded, and the system was washed again with PBS. After centrifugation, the supernatant was discarded, and the cells were resuspended with PBS at 100 μl/tube. 1 μl/tube Alexa-647-labeled goat anti-human IgG secondary antibody (purchased from Jackson lab) and 0.5 μl/tube PerCP-Cy5.5-labeled anti-human CD8 antibody were added and incubated at 4° C. in the dark for 30 min. The cells were washed twice with PBS. After centrifugation, the supernatant was discarded. The cells were resuspended with 200 μl/tube of PBS and assay is performed by flow cytometry.

PDL1 protein [4] = target: T1, PDL1 protein; test: ELISA, coated PDL1 protein, OD450 [panel B]
Protocol: as §1

CD3 on CD8 T cells [5] = target: T3, CD3 on CD8 T cells; test: flow cytometry, CD8 T cells in PBMCs, binding ratio % [panel A]; remark: listed apart in the source
Protocol: PBMCs were diluted with PBS to 2×10⁶/mL and added to a 1.5 ml EP tube at a volume of 100 μL/tube, 10 μL/tube of goat serum was added thereto and incubated at 4° C. for 30 min for blocking. […] 1 mL of PBS was added to the EP tube, followed by centrifugation at 3500 rpm for 5 min at 4° C. The supernatant was discarded, and the cells were washed again with PBS. After centrifugation, the supernatant was discarded, and the cells were resuspended with 100 μl/tube PBS. 1 μl/tube Alexa-647-labeled goat anti-human secondary antibody (purchased from Jackson lab) and 0.5 μl/tube PerCP-Cy5.5-labeled anti-human CD8 antibody were added and incubated at 4° C. in the dark for 30 min. The cells were washed twice with PBS, and the supernatant was discarded after centrifugation. The cells were resuspended with […] of PBS and assayed using the flow cytometry.

CD3E&D protein [6] = target: T4, CD3E&D protein (UniProt P04234 22-105); test: ELISA, coated CD3E&D protein, OD450 [panel C]
T4 construct: Purchased from Acro; also called CD3 E&D antigens; CD3E&D antigen protein
T4 sequence (chain, as listed by the source limits assumed, chain 1 of 2): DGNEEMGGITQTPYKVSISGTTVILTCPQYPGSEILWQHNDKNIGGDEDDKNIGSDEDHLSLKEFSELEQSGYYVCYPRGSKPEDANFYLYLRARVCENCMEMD
T4 sequence (P04234 22-105 limits assumed, chain 2 of 2): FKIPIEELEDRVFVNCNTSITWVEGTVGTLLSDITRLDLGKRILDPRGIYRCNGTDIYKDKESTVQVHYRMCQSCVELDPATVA
Protocol: In this example, the binding properties of the parental antibody Cross3 and the CD3 affinity-reduced antibody (the production method and the amino acid sequences of the heavy and light chains were shown in Example 1) were detected by ELISA. The CD3E&D protein was coated onto a 96-well plate by the inventors, and the strength of the signal after the addition of the antibody was used to determine the binding properties of the antibody and CD3E&D.
CD3E&D protein (purchased from Acro) was diluted to 2 μg/ml with PBS buffer, added to a 96-well plate at a volume of 100 μL/well, and placed at 4° C. overnight. The PBS buffer in the 96-well plate was aspirated, and the plate was washed 6 times with PBST (pH 7.2 PBS containing 0.1% Tween 20) buffer. Then, 200 μL/well PBS/10% BSA was added and incubated at 37° C. for 2 h for blocking. The blocking solution was removed, and the plate was washed six times with PBST. Then, the to-be-tested antibodies serially diluted with PBST/0.05% BSA, Cross3, Cross303, Cross307, Cross308, Cross309, Cross310, Cross311, Cross312, Cross313, Cross314, Cross316, Cross317, Cross318, Cross323, Cross325, Cross326, and control IgG1 (purchased from Bio-Tech) were added at 100 μL/well, and incubated at 37° C. for 1 h. The reaction system was removed, and the plate was washed 6 times with PBST. Then, the cells were incubated at 37° C. for 1 h with HRP (horseradish peroxidase)-labeled anti-human secondary antibody (Fab specific) (purchased from Sigma) serially diluted with PBST/0.05% BSA at 100 μL/well. The plate was washed six times with PBST, TMB (tetramethylbenzidine) was added at 80 μL/well and incubated at room temperature for 3 min. 4 M sulfuric acid was added at 80 μL/well to terminate the reaction. The absorbance was read at 450 nm using a microplate reader.

CD3E&D protein [7] = target: T4, CD3E&D protein; test: SPR (Biacore 8K), antibody on CM5 chip, CD3 E&D antigen as analyte; parameters: Fold change: reference not given here
Protocol: In a Biacore 8K (Cytiva) system, the antibody was diluted to 10 μg/mL in HBS-EP running buffer and coupled to a CM5 chip (Cytiva) at a flow rate of 10 μL/min.

T1 sequence (Q9NZQ7 19-238 limits assumed): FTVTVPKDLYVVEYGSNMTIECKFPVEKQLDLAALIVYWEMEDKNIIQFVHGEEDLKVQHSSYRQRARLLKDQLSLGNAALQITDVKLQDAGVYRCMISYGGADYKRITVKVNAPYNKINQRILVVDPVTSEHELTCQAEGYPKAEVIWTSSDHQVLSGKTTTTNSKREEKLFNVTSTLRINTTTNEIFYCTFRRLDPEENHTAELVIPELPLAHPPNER

B1: Cross313×PDL1 (bispecific antibody, human IgG1, kappa, L234A L235A)
scFv: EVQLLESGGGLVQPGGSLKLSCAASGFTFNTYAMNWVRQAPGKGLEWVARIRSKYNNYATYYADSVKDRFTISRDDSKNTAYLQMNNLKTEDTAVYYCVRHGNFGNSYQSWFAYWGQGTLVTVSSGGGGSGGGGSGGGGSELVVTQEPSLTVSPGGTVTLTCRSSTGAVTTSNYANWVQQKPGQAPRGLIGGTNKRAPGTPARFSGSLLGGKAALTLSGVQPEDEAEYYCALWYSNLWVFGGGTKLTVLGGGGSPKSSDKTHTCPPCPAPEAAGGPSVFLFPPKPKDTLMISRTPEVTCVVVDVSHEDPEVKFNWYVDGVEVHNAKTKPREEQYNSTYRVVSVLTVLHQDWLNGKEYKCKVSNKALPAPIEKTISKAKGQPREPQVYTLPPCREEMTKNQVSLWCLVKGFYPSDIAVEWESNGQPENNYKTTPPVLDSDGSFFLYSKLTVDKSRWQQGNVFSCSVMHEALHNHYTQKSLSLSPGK
heavy: QVQLVQSGAEVKKPGASVKVSCKASGYSFTGYYMHWVRQAPGQGLEWIGRINPYNGATTYSQNFKDRATMTVDTSISTAYMELSRLRSDDTAVYYCVPTGMGYFLMDYWGQGTLVTVSSASTKGPSVFPLAPSSKSTSGGTAALGCLVKDYFPEPVTVSWNSGALTSGVHTFPAVLQSSGLYSLSSVVTVPSSSLGTQTYICNVNHKPSNTKVDKKVEPKSCDKTHTCPPCPAPEAAGGPSVFLFPPKPKDTLMISRTPEVTCVVVDVSHEDPEVKFNWYVDGVEVHNAKTKPREEQYNSTYRVVSVLTVLHQDWLNGKEYKCKVSNKALPAPIEKTISKAKGQPREPQVCTLPPSREEMTKNQVSLSCAVKGFYPSDIAVEWESNGQPENNYKTTPPVLDSDGSFFLVSKLTVDKSRWQQGNVFSCSVMHEALHNHYTQKSLSLSPGK
light: DIQLTQSPSFLSASVGDRVTITCKASQDVGSAVVWYQQKPGKAPKLLIYWASTRHTGVPSRFSGSGSGTEFTLTISSLQPEDFATYFCQQFTSYPTFGQGTKLEIKRTVAAPSVFIFPPSDEQLKSGTASVVCLLNNFYPREAKVQWKVDNALQSGNSQESVTEQDSKDSTYSLSSTLTLSKADYEKHKVYACEVTHQGLSSPVTKSFNRGEC
EC50 (read off the curve) (PDL1 protein [1]): ~0.2 µg/mL
EC50 (read off the curve) [2]: ~1 µg/mL
EC50 (read off the curve) (CD3 on CD8 T cells [3]): ~2 µg/mL

B2: Cross317×PDL1 (bispecific antibody, human IgG1, kappa, L234A L235A)
scFv: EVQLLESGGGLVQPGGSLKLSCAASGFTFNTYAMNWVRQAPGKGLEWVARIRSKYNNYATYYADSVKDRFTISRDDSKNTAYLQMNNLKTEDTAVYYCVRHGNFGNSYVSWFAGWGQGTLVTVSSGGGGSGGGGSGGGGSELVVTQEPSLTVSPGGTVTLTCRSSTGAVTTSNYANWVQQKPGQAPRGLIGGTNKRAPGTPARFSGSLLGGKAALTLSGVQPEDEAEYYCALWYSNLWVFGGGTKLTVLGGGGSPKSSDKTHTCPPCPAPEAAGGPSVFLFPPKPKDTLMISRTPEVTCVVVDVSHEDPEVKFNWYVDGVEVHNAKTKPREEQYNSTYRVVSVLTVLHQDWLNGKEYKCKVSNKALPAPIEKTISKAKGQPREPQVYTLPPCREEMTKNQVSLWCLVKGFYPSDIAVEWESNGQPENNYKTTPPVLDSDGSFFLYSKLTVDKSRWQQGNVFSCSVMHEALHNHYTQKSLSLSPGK
heavy: B1 heavy
light: B1 light
EC50 (read off the curve) [2]: ~1 µg/mL
EC50 (read off the curve) (PDL1 protein [4]): ~0.2 µg/mL

B3: Cross323 (antibody, human IgG1, kappa, V domains shown)
VH: EVQLLESGGGLVQPGGSLKLSCAASGFTFNTYAMNWVRQAPGKGLEWVARIRSKYNNYATYYADSVKDRFTISRDDSKNTAYLQMNNLKTEDTAVYYCVRHGNFGNSYVSWFAYWGQGTLVTVSS
VL: ELVVTQEPSLTVSPGGTVTLTCRSSTGAVTTSNYANWVQQKPGQAPRGLIGGTNKRAPGTPARFSGSLLGGKAALTLSGVQPEDEAEYYCALWYPNLWVFGGGTKLTVLR
EC50 (read off the curve) (CD3 on CD8 T cells [5]): ~0.3 µg/mL
EC50 (read off the curve) (CD3E&D protein [6]): ~0.03 µg/mL
Fold change (CD3E&D protein [7]): 19.9
Kd (CD3E&D protein [7]): 3.28 nM
koff (CD3E&D protein [7]): 0.0094 s⁻¹
kon (CD3E&D protein [7]): 2.86e+06 M⁻¹ s⁻¹

B4: Cross326 (antibody, human IgG1, kappa, V domains shown)
VH: B3 VH
VL: B3 VL with P95S, L97P
EC50 (read off the curve) (CD3E&D protein [6]): ~0.03 µg/mL
Fold change (CD3E&D protein [7]): 16.5
Kd (CD3E&D protein [7]): 2.73 nM
koff (CD3E&D protein [7]): 0.0386 s⁻¹
kon (CD3E&D protein [7]): 1.41e+07 M⁻¹ s⁻¹

B5: Cross325 (antibody, human IgG1, kappa, V domains shown)
VH: B3 VH
VL: B3 VL with P95S, L97D
EC50 (read off the curve) (CD3 on CD8 T cells [5]): ~0.3 µg/mL
EC50 (read off the curve) (CD3E&D protein [6]): ~0.03 µg/mL
Fold change (CD3E&D protein [7]): 15.6
Kd (CD3E&D protein [7]): 2.57 nM
koff (CD3E&D protein [7]): 0.00366 s⁻¹
kon (CD3E&D protein [7]): 1.42e+06 M⁻¹ s⁻¹
